Experimental data: patent US20230398184A1, “METHODS OF INDUCING STEM CELL MOBILIZATION” (NeoImmuneTech, Inc., priority 2020, published 2023)

Key:
Type in all cases: in vivo, C57BL/6 mice
[1] = test system: LSK cells and HSCs; experiment: IL-7 and AMD3100 combination, HSC mobilization into peripheral blood; conditions: IL-7 0.5 mg/kg day 0; AMD3100 5 mg/kg 1 hour prior to analysis; day 3
Protocol: As described herein, AMD3100 (CXCR4 antagonist) is another regimen that is commonly used to promote the migration of HSCs from the bone marrow into the peripheral blood. Cashen et al., Future Oncol 3(1): 19-27 (February 2007). To determine whether IL-7 can also enhance the HSC mobilization effects of AMD3100, C57BL/6 animals received a single subcutaneous administration of the following: (i) buffer alone, (ii) IL-7 alone (0.5 mg/kg), (iii) AMD3100 (5 mg/kg), and (iv) IL-7 (0.5 mg/kg) in combination with AMD3100 (5 mg/kg). […] At day 3 post initial administration, the number of both LSK cells and HSCs were again assessed in the peripheral blood using flow cytometry.

[2] = test system: LSK cells and HSCs; experiment: Comparison of IL-7 with G-CSF and G-CSF + AMD3100 on mobilization of HSCs to peripheral blood; conditions: PEG-rhG-CSF 5 μg s.c. day 3; rhG-CSF 6.25 μg/day days 0-3
Protocol: As described herein, granulocyte colony stimulating factor (G-CSF) is a standard regimen used in the clinic to induce HSC mobilization. Therefore, the potency of IL-7 was compared to that of G-CSF on inducing the mobilization of HSCs to peripheral blood was assessed. Briefly, C57BL/6 mice were treated with one of the following: (i) control buffer (“control”), (ii) IL-7 protein (“IL-7”) (2.5 mg/kg; subcutaneous), (iii) long-acting pegylated recombinant human G-CSF (“PEG-rhG-CSF”) (5 μg; subcutaneous), or (iv) non-pegylated recombinant human G-CSF (“rhG-CSF”) (twice a day (6.25 μg/day) at days 0, 1, 2, and 3 (i.e., total dose of 25 μg/mouse); subcutaneous). In animals treated with the IL-7 protein or PEG-rhG-CSF, the number of LSK cells and HSCs was determined in the peripheral blood at day 3 post administration. In animals treated with rhG-CSF, the number of LSK cells and HSCs in the peripheral blood was assessed within 6-8 hours after last rhG-CSF administration.
In this regard, the potency of IL-7 protein alone to the G-CSF+AMD3100 combinational regimen was next compared. Briefly, normal C57BL/6 mice were administered with one of the following: (i) control buffer, (ii) IL-7 protein alone, (iii) pegylated recombinant human G-CSF (“G-CSF”), or (iv) G-CSF in combination with AMD3100. Then, the number of HSCs in the peripheral blood was assessed at day 3 post administration.

[3] = test system: LSK cells and HSCs; experiment: IL-7 and G-CSF combination, HSC mobilization into peripheral blood; conditions: IL-7 0.5 mg/kg or G-CSF 5 μg s.c., day 3
Protocol: To determine whether the combined treatment of IL-7 and G-CSF can further improve the mobilization of HSCs into the peripheral blood, C57BL/6 animals received a single subcutaneous administration of one of the following: (i) buffer alone, (ii) IL-7 alone (0.5 mg/kg), (iii) pegylated recombinant human G-CSF alone (5 μg), and (iv) IL-7 (0.5 mg/kg) in combination with G-CSF (5 μg). Then, at day 3 post administration, both the number of LSK cells and HSCs in the peripheral blood were assessed using flow cytometry.

## c1cc(CN2CCCNCCNCCCNCC2)ccc1CN1CCCNCCNCCCNCC1 [AMD3100]
[1]
  amount of LSK cells and HSCs in peripheral blood vs control: comparable to that of the control animals

B1: PEG-rhG-CSF: long-acting pegylated recombinant human G-CSF (protein, UniProt P09919 31-207, looked up)
Granulocyte …: TPLGPASSLPQSFLLKCLEQVRKIQGDGAALQEKLVSECATYKLCHPEELVLLGHSLGIPWAPLSSCPSQALQLAGCLSQLHSGLFLYQGLLQALEGISPELGPTLDTLQLDVADFATTIWQQMEELGMAPALQPTQGAMPAFASAFQRRAGGVLVASHLQSFLEVSYRVLRHLAQP
modifications: PEG
[2]
  efficacy of mobilization, the two types of G-CSF compared: comparable efficacy of mobilization
[3]
  amount of LSK cells in peripheral blood vs buffer alone: increased amount

B2: rhG-CSF: non-pegylated recombinant human G-CSF (protein, UniProt P09919 31-207, looked up)
Granulocyte …: TPLGPASSLPQSFLLKCLEQVRKIQGDGAALQEKLVSECATYKLCHPEELVLLGHSLGIPWAPLSSCPSQALQLAGCLSQLHSGLFLYQGLLQALEGISPELGPTLDTLQLDVADFATTIWQQMEELGMAPALQPTQGAMPAFASAFQRRAGGVLVASHLQSFLEVSYRVLRHLAQP
[2]
  efficacy of mobilization, the two types of G-CSF compared: comparable efficacy of mobilization
